Test results published in patent US20090197263, “Compare-MS: Method Rapid, Sensitive and Accurate Detection of DNA Methylation” (published 2009).

Tests used:
[1] = biological target: T1, MBD2-MBD (methyl-binding domain of MBD2) (Homo sapiens, UniProt Q9UBB5 Q9UBB5:145-213); assay: FP; 10 nM hairpin; 50 mM NaCl, 1 mM MgCl2, 10 mM Tris pH 7.4, room temp; details: tags: C-terminal 6xHis (pFBC6H baculovirus vector, Sf9), label: 5'-6FAM
Description: (§1) 10 nM of annealed, fluorescently-labeled hairpin oligonucleotides with the sequence 5′-6FAM-[…]-3′ (SEQ ID NO:4) with no methylated CpGs (unmethylated hairpin), 2 methylated CpGs at the 2nd and 5th CpGs from the 5′ end (1 symmetrically methylated CpG hairpin), 3 methylated CpGs toward the 3′ end (3 asymmetrically methylated CpG hairpin), 4 methylated CpGs at the 1st, 2nd, 5th, and 6th CpGs from the 5′ end (2 symmetrically methylated CpG hairpin), or 6 methylated CpGs (3 symmetrically methylated CpG hairpin) were incubated with various concentrations of recombinant MBD2-MBD in a 50 μL reaction volume containing 4% glycerol, 1 mM MgCl₂, 0.5 mM EDTA, 0.5 mM DTT, 50 mM NaCl, 10 mM Tris-HCl (pH 7.4), 0.2% Tween-20 for 1 hour at room temperature with gentle shaking. Fluorescence polarization measurements were taken in triplicate using a Beckman Coulter DTX 880 Multimode Detector as described previously (Lee et al., (2005), supra). Briefly, fluorescence anisotropies (r) were calculated as
(§2) 6His-tagged methyl-binding domain of human MBD2 (MBD2-MBD) was expressed in Sf9 insect cells using a baculoviral expression system and purified using Ni-NTA Superflow beads (Qiagen, Valencia, Calif.). The affinities of MBD2-MBD for fluorescently labeled hairpin oligonucleotides containing various configurations of CpG methylation were then determined by fluorescence polarization (FIG. 2). […]

[2] = biological target: T1, MBD2-MBD (methyl-binding domain of MBD2); assay: FP; 10 nM hairpin; 50 mM NaCl, 1 mM MgCl2, 10 mM Tris pH 7.4, room temp; text gives 2 or 3 sites as 156 and 222 nM respectively but cites FIGS. 2A (three pairs) and; details: tags: C-terminal 6xHis (pFBC6H baculovirus vector, Sf9), label: 5'-6FAM
Description: as §1, §2

T1 sequence (Q9UBB5 145-213, one chain of several): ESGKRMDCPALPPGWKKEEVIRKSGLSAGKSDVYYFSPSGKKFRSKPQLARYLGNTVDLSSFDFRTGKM

Binder: ATCGTCGTACGTTTTCGTACGACGAT (structured_DNA, 5mC at 2nd and 5th CpGs from 5' end (C6, C20)) [1 symmetrically methylated CpG hairpin]
- EC50 [1]: 519 nM

Binder: ATCGTCGTACGTTTTCGTACGACGAT (structured_DNA, 5mC at 1st, 2nd, 5th and 6th CpGs from 5' end (C3, C6, C20, C23)) [2 symmetrically methylated CpG hairpin]
- EC50 [2]: 156 nM
